Tests used:
[1] = tested on: primary rabbit corneal epithelial cells; assay: single cell clonal growth assay (colony formation, clonal proliferation); type: cell-based; conditions: D6
From the text: In order to evaluate the effect of GDNF on corneal proliferation, recombinant human GDNF was used (R&D, Minneapolis, Minn., USA). For the evaluation of the effect on corneal epithelial proliferaton a single cell clonal growth model was utilized which allows to determine the effect of the given growth factor on both colony formation as well as clonal expansion (Kruse et al., 1991). New Zealand white rabbits were housed and treated according to the ARVO Resolution of Animals in Research and under observation of German Federal Laws and the laws of the State of Baden-Württemberg. Prior to sacrifice with an intravenous overdose of pentobarbital, they received an intramuscular injection of xylazine hydrochloride and ketamine hydrochloride. The details of the clonal growth assay are described in Kruse et al. (1991). 5000 viable cells were seeded in each 16 mm dish in serum-free medium MCDB 151 with a supplement (S) of insulin (5 μg/ml), transferrin (5 μg/ml), selenium (5 ng/ml) and hydrocortisone (5 μg/ml) (all from Sigma, Deisenhofen, Germany). […] This quantification was facilitated by the use of dishes which contained a grit on the bottom which is roughly 2 mm wide (from Sarstedt, Newton, N.C., USA). For data collection the entire surface area of four randomly selected dishes for each condition was screened. Furthermore, the number of cells per colony was determined in 75 randomly selected colonies for each condition. Furthermore, the total number of cells/dish was calculated in order to carry out an evaluation for artemin. In order to stimulate the cellular proliferation, GDNF (50 or 200 ng/ml) or artemin (250 ng/ml) was added to the medium. In order to estimate the rate of proliferation after 12 days (a time when neighbouring colonies started to grow into each other and, therefore, prevented numerical quantification) dishes were fixed in −20° C. methanol and stained with methylene blue.
All experiments examining the effect of GDNF on corneal proliferation were performed in triplicate with cells from different donors. The influence of growth factor on colony formation, colony size and cell number was studied using one-way analysis of variance. […] Student's t-test was employed to determine which differences were significant after analysis of variance.

[2] = tested on: ERK1, ERK2, JNK1 and JNK2; assay: western blot of phosphorylated MAP kinases in cultured human corneal epithelium; type: cell-based; conditions: human epithelial cells
Experimental: In order to evaluate the effect of GDNF and other neurotrophic factors on the activation of signal transduction pathways in cultured corneal epithelial and stromal keratocytes, western blots were performed for detecting an accumulation of phosphorylated MAP kinases ERK and JNK in the presence of GDNF, NGF and BDNF. Human stromal keratocytes were cultured in RPMI 1640 medium containing L-glutamine (glutaMAX) or DMEM with 10% FBS for one day and starved in serum-free medium for another day. Cultures were then washed with PBS and incubated in serum-free DMEM without additives or with recombinant human GDNF (200 ng/ml), recombinant human NGF (200 ng/ml) and recombinant human BDNF (200 ng/ml) (all obtained from R & D Systems, Mineapolis, Minn., USA) for 30 min. Some cultures were incubated with an inhibitor of MAP kinases (PD 98059, Torcris Cookson Ballwin, Mo., USA) at 100 μM for 1 h prior to exposure to neurotrophines. After washing with PBS, culture cells were solubilized in lysis buffer containing 50 mM Tris-Cl (pH 8.0), 150 mM NaCl, 0.02% sodium azide, 100 μg/ml PMSF, 1% Triton X-100 and a mixture of several protein inhibitors (Complete®, Boehringer Mannheim) (one tablet/50 ml buffer). 50 μg total protein per lane was fractionated by a 10% STS-MOPS NUPAGE Bis-tris gel (NOVEX, San Diego, Calif., USA) and blotted onto nitrocellulose membrane. Membranes were stained with diluted polyclonal antibodies against ERK1, ERK2, JNK1 and JNK2 (Santa Cruz Biotechnology, Santa Cruz, Calif., USA). Also a polyclonal antibody was used which recognizes the […] form of either ERK1 and ERK2 which was raised against the catalytic core of the phosphorylated threonine residue 183 and tyrosine residue 185 of mammalian ERK2. Similarily, a polyclonal antibody recognizing the phosphorylated form of JNK1 and JNK2 was used (both from Promega). In the last step the membranes were visualized with the ECL western blot analysis system (Amersham).

B1: GDNF: recombinant human GDNF having the amino acid sequence of human wild-type GDNF (GenBank L19063, L15306) (protein)
chain: SPDKQMAVLPRRERNRQAAAANPENSRGKGRRGQRGKNRGCVLTAIHLNVTDLGLGYETKEELIFRYCSGSCDAAETTYDKILKNLSRNRRLVSDKVGQACCRPIAFDDDLSFLDDNLVYHILRKHSAKRCGCI
[1]; GDNF 50 ng (p<0,05) and 200 ng (p<0.0001), serum-free MCDB
  numbers of colonies per dish: increased significantly
[1]; GDNF 50 and 200 ng/ml, p<0.01
  clonal proliferation (number of cells within each colony): significantly stimulated
[2]; 200 ng/ml factor vs serum-free control medium
  phosphorylation of ERK1 and ERK2: induced
[2]; vs control
  phosphorylation of JNK1/2: not induced

Source: patent US20030166537A1, “Use of GDNF for treating corneal defects” (Biopharm Gesellschaft Zur Biotechnologischen Entwicklung …, priority 1999, published 2003)
